T1: recombinant human activin A (human, UniProt P08476 311-426)
T1 sequence (looked up): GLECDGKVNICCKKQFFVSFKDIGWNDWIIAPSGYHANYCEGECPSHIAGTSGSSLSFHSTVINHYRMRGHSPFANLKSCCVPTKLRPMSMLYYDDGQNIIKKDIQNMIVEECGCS

T2: activin B (UniProt P09529 293-407)
T2 sequence (looked up): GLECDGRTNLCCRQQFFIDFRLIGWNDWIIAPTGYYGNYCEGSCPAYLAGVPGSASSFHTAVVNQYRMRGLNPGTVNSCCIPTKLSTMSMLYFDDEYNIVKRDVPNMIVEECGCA

T3: BMP-9 (UniProt Q9UK05 320-429)
T3 sequence (looked up): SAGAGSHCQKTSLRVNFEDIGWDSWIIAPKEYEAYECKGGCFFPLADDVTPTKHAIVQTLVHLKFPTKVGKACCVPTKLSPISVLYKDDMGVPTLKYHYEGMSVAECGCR

T4: BMP-10 (UniProt O95393 317-424)
T4 sequence (looked up): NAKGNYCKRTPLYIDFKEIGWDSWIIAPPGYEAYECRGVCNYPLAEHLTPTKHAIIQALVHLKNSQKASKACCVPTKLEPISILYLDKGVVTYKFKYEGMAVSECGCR

T5: BMP-9 (Homo sapiens, UniProt Q9UK05)
T5 sequence (Q9UK05 320-429): T3 sequence (looked up)

B1: P1375 (Fc fusion)
chain: ETRECIYYNANWELERTNQSGLERCEGEQDKRWHCYASWRNSSGTIELVKKGCWLDDFNCYDRQECVATEENPQVYFCCCEGNFCNERFTHLPEAGGPEVTYEPPPTGGGGSGGGGSGGGGSGGGGTHTCPPCPAPELLGGPSVFLFPPKPKDTLYITREPEVTCVVVDVSHEDPEVKFNWYVDGVEVHNAKTKPREEQYNSTYRVVSVLTVLHQDWLNGKEYKCKVSNKALPAPIEKTISKAKGQPREPQVYTLPPSRDELTKNQVSLTCLVKGFYPSDIAVEWESNGQPENNYKTTPPVLDSDGSFFLYSKLTVDKSRWQQGNVFSCSVMHEALHNHYTQKSLSLSPG
B2: P1375: hActRIIB L33W, 19 aa linker, IgG1 YTE-DL Fc; SEQ ID 234 (protein)
chain: B1 chain

What was measured:
[1] = SEC-HPLC monomer and HMW content of purified fusion proteins; format: physicochemical; conditions: after Protein A purification
Description: Given that protein aggregation can be indicative of reduced conformational stability and decreased activity, Size-Exclusion Chromatography-High Performance Liquid Chromatography (SEC-HPLC) was used to determine the purity of each ActRIIB-ECD construct. This method measured the percentage of intact monomeric species as well as the presence of aggregates and/or degradation products.
All proteins expressed efficiently in CHO and/or 293 cells and purification efficiency of each using Protein A affinity chromatography was similar.

[2] = Single-injection body weight gain in wild-type mice; format: in vivo; conditions: single 25 mg/kg subcutaneous injection, after 4 days, vs vehicle
Procedure: To investigate the target engagement of exemplary ActRIIB-ECD polypeptide constructs in vivo, mice (n=6/group) were injected with given agents (25 mg/kg, subcutaneous injection), and sacrificed after 4 days to assess body weight gain.

[3] = Skeletal muscle mass and Mss51 expression in lean mice; format: in vivo; conditions: 25 mg/kg twice weekly, seven days
Procedure: The effects of P1229 on body composition and metabolism in lean mice were further assessed.
Additional assays were performed to assess the relative expression level of Mss51, a skeletal muscle-specific gene. Mss51 is a key target of myostatin signaling, with a role in fatty acid oxidation, glycolysis, and oxidative phosphorylation.

[4] = tested on: diet-induced obese (DIO) mice; assay: Body composition and metabolism in diet-induced obese (DIO) mice; format: in vivo; conditions: 3 weeks s.c., P75, P1229 25 mg/kg twice weekly, P1373 5, 20, 50 mg/kg twice weekly, P1307 20 mg/kg weekly
Procedure: Experiments were performed to assess the effects of P1229 on body composition and metabolism in diet-induced obese (DIO) mice. DIO mice were purchased from Jackson Laboratories (#380050). Briefly, mice were fed a high-fat diet (HFD, 60% kcal from fat) from 6 weeks of age until 22 weeks of age (total of 16 weeks on the HFD). […] After 3 weeks of treatments, some animals were sacrificed and scanned by EchoMRI […] (FIGS. 11A-F), while others were sacrificed for tissue collection and RNA analysis. Animals were maintained on the HFD throughout the acclimatization and treatment periods. The murine version of bimagrumab used for these experiments comprises the heavy chain amino acid sequence of SEQ ID NO: 376 and the light chain sequence of SEQ ID NO: 377.

[5] = biological target: T1, recombinant human activin A; assay: cell-based or functional assay
[6] = biological target: T2, activin B; assay: cell-based or functional assay
[7] = biological target: GDF-8 (UniProt O14793 267-375); assay: cell-based or functional assay
[8] = biological target: GDF-11 (UniProt O95390 299-407); assay: cell-based or functional assay
Sequence of GDF-11 (O95390 299-407 limits assumed): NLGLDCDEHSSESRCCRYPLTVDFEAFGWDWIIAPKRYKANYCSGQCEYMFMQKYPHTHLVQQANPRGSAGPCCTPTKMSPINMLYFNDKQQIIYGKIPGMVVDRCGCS

[9] = biological target: T3, BMP-9; assay: cell-based or functional assay
[10] = biological target: T4, BMP-10; assay: cell-based or functional assay
[11] = tested on: TGFβ superfamily ligands; assay: Neutralization profile across TGFβ superfamily ligands (HEK293 and HepG2 reporter assays, summary); format: cell-based, human
Procedure: Potency testing by neutralization on cell-based assays. Characterization of the activin A, activin B, GDF-8, and GDF-11 inhibition potency (IC50) of the fusion proteins was performed using a cell-based reporter assay. TGFβ-reporter HEK293 cells were obtained from InvivoGen (San Diego, CA, cat. no. hkb-tgfb) and were maintained following the manufacturer's instructions. Briefly, cells were grown in high-glucose DMEM, containing 10% heat-inactivated FBS, 30 μg/mL blasticidin, 250 μg/mL hygromycin B, and 100 μg/mL zeocin (hereafter, “growth medium”). Once the cells reached 70-80% confluence, they were detached in growth medium by gently tapping on the flask. For all assays, cells were seeded in 96-well plates at a density of 20,000 cells per well in growth medium. Cells were left to attach for 10 minutes at room temperature (RT) prior to being transferred to a 37° C. incubator (5% CO2) overnight. The next day, treatments were prepared by combining the appropriate concentration of agent with activin A, activin B, GDF-8, or GDF-11 for 30 min at RT (shaking at 150 rpm). Treatments were conducted in high-glucose DMEM (serum-free and with no selection agents), and the final concentration of cytokine (ligand) was 0.3 nM. Growth medium was removed from the culture plates, and cells were treated with the appropriate mixes of fusion protein and cytokine. Treatment duration was for 18-22 h at 37° C. (5% CO2). All treatments were performed in technical duplicates and at least one or two independent experiments were conducted for each cytokine. At the end of the treatment period, supernatants were transferred to a new plate, and centrifuged at 300 RPM for 3 min. Forty microlitres of supernatant from each condition was transferred to a new plate, into which 180 μL of Quanti-Blue reagent (InvivoGen, cat. no. rep-qbs) was added. Quanti-Blue reagent was prepared following the manufacturer's instructions. Samples were incubated for 45 min at 37° C. At the end of the incubation, absorbance was read at 650 nm. The data were plotted in GraphPad Prism, which was used to calculate IC50 values as a non-linear regression.
Characterization of the BMP-9 and BMP-10 inhibition potency (IC50) of the fusion proteins was performed using a second cell-based reporter assay. Human hepatic HepG2 cells were transfected with a SEAP-encoding plasmid, in which SEAP expression is under the control of the murine Id1 promoter. A stable pool was generated from this transfection. Cells were grown in EMEM, containing 10% heat-inactivated FBS and 200 μg/mL zeocin (hereafter, “HepG2 growth medium”). […] For all assays, cells were seeded in 96-well plates at a confluence of 100,000 cells per well in HepG2 growth medium. Cells were left to attach for 10 minutes at RT prior to being transferred to a 37° C. incubator (5% CO2) overnight. The next day, treatments were prepared in EMEM (2.5% heat-inactivated FBS and with no selection agents) by combining the appropriate concentration of agent with BMP-9 or BMP-10 for 30 min at RT (shaking at 150 rpm). Treatments were conducted in EMEM (2.5% heat-inactivated FBS and with no selection agents), and the final concentration of BMP-9 and BMP-10 was 2 ng/mL and 40 ng/mL, respectively. HepG2 growth medium was removed from the culture plates, and cells were treated with the appropriate mixes of fusion protein and cytokine. Treatment duration was for 20-24 h at 37° C. (5% CO2). […]

[12] = biological target: T5, BMP-9; assay: Small-scale BMP-9 ELISA with CHO supernatants; format: binding; conditions: BMP-9 10 ng/mL
Procedure: Small-scale testing of ActRIIB-ECD fusion proteins. Additional investigation of a series of exemplary agents was performed using proteins expressed in CHO cells. Briefly, DNA encoding the ActRIIB-ECD-Fc fusion constructs was transfected in cells seeded in 12-well plates in a final volume of 1 ml. After 7 days, the supernatant was harvested, clarified, and the amount of expressed protein in each well was quantified using standard methods. The potency of each agent for inhibition of activin A, BMP-9 and BMP-10 was determined in three separate assays.
The next day, the plate was washed three times. […] Expressed proteins in the supernatants were diluted 1 in 2 in assay diluent (0.5% BSA, 0.05% tween-20 in PBS) and 100 μl was added to the 96-well plate in technical duplicates. After a 1.5-hour incubation at RT, the plate was washed three times. […] In this assay, a loss of signal indicates less binding of the exemplary agent to BMP-9. Results are expressed as a % of the signal obtained with wild-type ActRIIB-Fc (P75).

| Molecule | high molecular weight (HMW) content (SEC-HPLC) [1] | monomer content (SEC-HPLC) [1] | body weight gain [2] | tibialis anterior and gastrocnemius weight [3] | fat mass and lean mass (EchoMRI) [4] | Activin A IC50; TGFβ-reporter HEK293 cells [5] | Activin B IC50; TGFβ-reporter HEK293 cells [6] | GDF-8 IC50; TGFβ-reporter HEK293 cells [7] | GDF-11 IC50; TGFβ-reporter HEK293 cells [8] | BMP-9 IC50; BMP-reporter HepG2 cells [9] | BMP-10 IC50; BMP-reporter HepG2 cells [10] | impact of modifications in the Fc sequence on activin A, activin B, GDF-8, and GDF-11 potency ([11]; all ligands) | impact of modifications in the Fc sequence on BMP-9 and BMP-10 potency ([11]; both ligands) | BMP-9 binding, ELISA signal relative to P75 [12] |
| --- | --- | --- | --- | --- | --- | --- | --- | --- | --- | --- | --- | --- | --- | --- |
| P75: human wild type ActRIIB-ECD linked to human IgG1 Fc domain by a triple glycine linker; SEQ ID NO: 171; benchmark [reference compound] | 16% | 84% | statistically significant body weight gain | significantly increased | promoted lean mass gain but less fat loss | – | – | – | – | – | – | – | – | – |
| B1 | – | – | – | – | – | 0.53 nM | 2 nM | 0.33 nM | 0.39 nM | > 1000 nM | > 100 nM | – | – | – |
| B2 | 0% | 99% | – | – | – | – | – | – | – | – | – | comparable to P1373 | comparable to P1373 | near-undetectable binding to BMP-9 |

— patent US20260193317A1, “COMBINATION THERAPY WITH ACTRIIB RECEPTOR VARIANTS AND GLP-1 AGONISTS” (35PHARMA Inc., priority 2023, published 2026)
